Publication PMC12457681, “Hyperactive PLCG1 induces cell-autonomous and bystander T cell activation and drug resistance” (EMBO Reports, 2025)

Target: His6-ybbR-alpha-SMA, recombinant, assembled into filaments (human, UniProt P62736 1-377)
Assay: co-sedimentation; actin co-pelleting (spin-down) assay: 4 µM α-SMA pre-assembled into filaments (with Rhodamine muscle actin), 0.4 µM PLCG1 and 1 µM myosin in 50 mM HEPES pH 7.4, 150 mM NaCl, 1 mM TCEP, 2 h at room temperature; high-speed centrifugation; supernatant and pellet on SDS-PAGE
Conditions: both partners purified

B1: Rat PLCG1 (aa 21-1215) WT, recombinant (enzyme, UniProt P10686 21-1215, looked up)
chain: EVLHLCRSLEVGTVMTLFYSKKSQRPERKTFQVKLETRQITWSRGADKIEGSIDIREIKEIRPGKTSRDFDRYQEDPAFRPDQSHCFVILYGMEFRLKTLSLQATSEDEVNMWIKGLTWLMEDTLQAATPLQIERWLRKQFYSVDRNREDRISAKDLKNMLSQVNYRVPNMRFLRERLTDFEQRSGDITYGQFAQLYRSLMYSAQKTMDLPFLETNTLRTGERPELCQVSLSEFQQFLLEYQGELWAVDRLQVQEFMLSFLRDPLREIEEPYFFLDELVTFLFSKENSVWNSQLDAVCPETMNNPLSHYWISSSHNTYLTGDQFSSESSLEAYARCLRMGCRCIELDCWDGPDGMPVIYHGHTLTTKIKFSDVLHTIKEHAFVASEYPVILSIEDHCSIAQQRNMAQHFRKVLGDTLLTKPVDIAADGLPSPNQLKRKILIKHKKLAEGSAYEEVPTSVMYSENDISNSIKNGILYLEDPVNHEWYPHYFVLTSSKIYYSEETSSDQGNEDEEEPKEASGSTELHSSEKWFHGKLGAGRDGRHIAERLLTEYCIETGAPDGSFLVRESETFVGDYTLSFWRNGKVQHCRIHSRQDAGTPKFFLTDNLVFDSLYDLITHYQQVPLRCNEFEMRLSEPVPQTNAHESKEWYHASLTRAQAEHMLMRVPRDGAFLVRKRNEPNSYAISFRAEGKIKHCRVQQEGQTVMLGNSEFDSLVDLISYYEKHPLYRKMKLRYPINEEALEKIGTAEPDYGALYEGRNPGFYVEANPMPTFKCAVKALFDYKAQREDELTFTKSAIIQNVEKQDGGWWRGDYGGKKQLWFPSNYVEEMINPAILEPEREHLDENSPLGDLLRGVLDVPACQIAIRPEGKNNRLFVFSISMPSVAQWSLDVAADSQEELQDWVKKIREVAQTADARLTEGKMMERRKKIALELSELVVYCRPVPFDEEKIGTERACYRDMSSFPETKAEKYVNKAKGKKFLQYNRLQLSRIYPKGQRLDSSNYDPLPMWICGSQLVALNFQTPDKPMQMNQALFMAGGHCGYVLQPSTMRDEAFDPFDKSSLRGLEPCVICIEVLGARHLPKNGRGIVCPFVEIEVAGAEYDSTKQKTEFVVDNGLNPVWPAKPFHFQISNPEFAFLRFVVYEEDMFSDQNFLAQATFPVKGLKTGYRAVPLKNNYSEDLELASLLIKIDIFPAK
notes: Phospholipase C gamma 1, rat, aa 21-1215; PDB 6PBC (cited) is the structure of PLCG1 from that work; also called wild-type PLCG1; PLCG1 WT; source: expressed and purified as previous published protocol (Hajicek et al, 2019)
- binding result: binds

B2: Rat PLCG1 (aa 21-1215) D1165H, recombinant (enzyme, UniProt P10686 21-1215, looked up)
chain: EVLHLCRSLEVGTVMTLFYSKKSQRPERKTFQVKLETRQITWSRGADKIEGSIDIREIKEIRPGKTSRDFDRYQEDPAFRPDQSHCFVILYGMEFRLKTLSLQATSEDEVNMWIKGLTWLMEDTLQAATPLQIERWLRKQFYSVDRNREDRISAKDLKNMLSQVNYRVPNMRFLRERLTDFEQRSGDITYGQFAQLYRSLMYSAQKTMDLPFLETNTLRTGERPELCQVSLSEFQQFLLEYQGELWAVDRLQVQEFMLSFLRDPLREIEEPYFFLDELVTFLFSKENSVWNSQLDAVCPETMNNPLSHYWISSSHNTYLTGDQFSSESSLEAYARCLRMGCRCIELDCWDGPDGMPVIYHGHTLTTKIKFSDVLHTIKEHAFVASEYPVILSIEDHCSIAQQRNMAQHFRKVLGDTLLTKPVDIAADGLPSPNQLKRKILIKHKKLAEGSAYEEVPTSVMYSENDISNSIKNGILYLEDPVNHEWYPHYFVLTSSKIYYSEETSSDQGNEDEEEPKEASGSTELHSSEKWFHGKLGAGRDGRHIAERLLTEYCIETGAPDGSFLVRESETFVGDYTLSFWRNGKVQHCRIHSRQDAGTPKFFLTDNLVFDSLYDLITHYQQVPLRCNEFEMRLSEPVPQTNAHESKEWYHASLTRAQAEHMLMRVPRDGAFLVRKRNEPNSYAISFRAEGKIKHCRVQQEGQTVMLGNSEFDSLVDLISYYEKHPLYRKMKLRYPINEEALEKIGTAEPDYGALYEGRNPGFYVEANPMPTFKCAVKALFDYKAQREDELTFTKSAIIQNVEKQDGGWWRGDYGGKKQLWFPSNYVEEMINPAILEPEREHLDENSPLGDLLRGVLDVPACQIAIRPEGKNNRLFVFSISMPSVAQWSLDVAADSQEELQDWVKKIREVAQTADARLTEGKMMERRKKIALELSELVVYCRPVPFDEEKIGTERACYRDMSSFPETKAEKYVNKAKGKKFLQYNRLQLSRIYPKGQRLDSSNYDPLPMWICGSQLVALNFQTPDKPMQMNQALFMAGGHCGYVLQPSTMRDEAFDPFDKSSLRGLEPCVICIEVLGARHLPKNGRGIVCPFVEIEVAGAEYDSTKQKTEFVVDNGLNPVWPAKPFHFQISNPEFAFLRFVVYEEHMFSDQNFLAQATFPVKGLKTGYRAVPLKNNYSEDLELASLLIKIDIFPAK
notes: Phospholipase C gamma 1, rat, aa 21-1215, with the human leukemia/lymphoma-associated mutation D1165H; also called recombinant PLCG1 D1165H protein; source: expressed and purified as previous published protocol (Hajicek et al, 2019)
- binding result: binds
